According to publication PMC3260246 (PLoS ONE, 2012):

Target: the molecule itself
Assay: multi-angle light scattering; molar mass and hydrodynamic radius of wild-type and R12A proteins, ASTRA 5.3.4; conditions as in refs 32, 58

Protein | binding result
αA-crystallin R12A mutant (natural protein, human, UniProt P02489 1-173, looked up) MDVTIQHPWFKATLGPFYPSRLFDQFFGEGLFEYDLLPFLSSTISPYYRQSLFRTVLDSGISEVRSDRDKFVIFLDVKHFSPEDLTVKVQDDFVEIHGKHNERQDDHGYISREFHRRYRLPSNVDQSALSCSLSADGMLTFCGPKIQTGLDATHAERAIPVSREEKPTSAPSS | binds
wild-type human αB-crystallin (natural protein, UniProt P02511 1-175, looked up, αB-crystallin, human; The reverse primer carries no stop codon; Large oligomer (molar mass about 4.8e5 g/mol by light scattering); also called αBWt; Wt αB-crystallin; source: E. coli BL21(DE3), purified (gel filtration, ion-exchange chromatography)) MDIAIHHPWIRRPFFPFHSPSRLFDQFFGEHLLESDLFPTSTSLSPFYLRPPSFLRAPSWFDTGLSEMRLEKDRFSVNLDVKHFSPEELKVKVLGDVIEVHGKHEERQDEHGFISREFHRKYRIPADVDPLTITSSLSSDGVLTVNGPRKQVSGPERTIPITREEKPAVTAAPKK | binds
αB-crystallin R12A mutant (natural protein, human, UniProt P02511 1-175, looked up, αB-crystallin, human, R12A made by site-directed mutagenesis on the Wt cDNA in pET23a; Same construct as m3 with R12A; also called αB_(R12A); source: E. coli BL21(DE3), purified (gel filtration, ion-exchange chromatography)) MDIAIHHPWIRAPFFPFHSPSRLFDQFFGEHLLESDLFPTSTSLSPFYLRPPSFLRAPSWFDTGLSEMRLEKDRFSVNLDVKHFSPEELKVKVLGDVIEVHGKHEERQDEHGFISREFHRKYRIPADVDPLTITSSLSSDGVLTVNGPRKQVSGPERTIPITREEKPAVTAAPKK | binds
